Assay [1] addresses T1, Nab2-N (residues 1–105 of Nab2), untagged (S. cerevisiae, UniProt P32505 1-105).
T1 sequence (looked up): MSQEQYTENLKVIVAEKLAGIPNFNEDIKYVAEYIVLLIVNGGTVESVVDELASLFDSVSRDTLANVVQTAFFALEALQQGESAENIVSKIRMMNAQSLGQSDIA
Nature of the assay: crystal structure.

Assay [2] deals with T2, His6-S-Tag-Gfd1 wild type (S. cerevisiae, UniProt Q04839 1-188).
T2 sequence (looked up): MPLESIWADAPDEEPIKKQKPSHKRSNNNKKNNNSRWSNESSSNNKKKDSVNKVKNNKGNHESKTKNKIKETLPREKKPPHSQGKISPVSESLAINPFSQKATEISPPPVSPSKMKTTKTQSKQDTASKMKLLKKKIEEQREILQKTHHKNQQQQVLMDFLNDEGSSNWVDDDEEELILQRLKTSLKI
Nature of the assay: pull-down.

Substitutions are numbered along the chain they refer to. Numbers in names are those of the source.

Data on four molecules can be found in PMC2898303 (The Journal of Biological Chemistry, 2010).

Regarding SKQDTASKMKLLKKKIEEQREILQKTHHKN (peptide, UniProt Q04839 122-151, looked up) [Gfd1 122–151 (fragment of Gfd1 released from GST-TEV-Gfd1 122–151 by TEV protease)], the binding result in assay [1] is “binds”.

B1: GST-Nab2-N-WT (residues 1–97) (domain or fragment, S. cerevisiae, UniProt P32505 1-97, looked up)
chain: MSQEQYTENLKVIVAEKLAGIPNFNEDIKYVAEYIVLLIVNGGTVESVVDELASLFDSVSRDTLANVVQTAFFALEALQQGESAENIVSKIRMMNAQ
As to B1, the binding result in assay [2] is recorded as “binds”.

B2: GST-Nab2-N-L55W (residues 1–97) (domain or fragment, S. cerevisiae, UniProt P32505 1-97, looked up)
chain: B1 chain with L55W
Take B2: the binding result in assay [2] is recorded as “binds”.

B3: GST-Nab2-N-F56D (residues 1–97) (domain or fragment, S. cerevisiae, UniProt P32505 1-97, looked up)
chain: B1 chain with F56D
Turning to B3, the binding result in assay [2] is given as “binds”.
